Format in all cases: cell-based
Data set [1] deals with isogenic WT or SF3B1-mutant K562 cells. The data set can be described thus: Fluorescent reporter (mEmerald interrupted by synthetic intron, mCardinal control), flow cytometry. The text has this: These six endogenous introns served as starting points for the development of synthetic introns that functioned as compact and modular molecular switches. […] These choices were guided by the increased complexity of the 3′ss versus 5′ss, SF3B1's functional role in 3′ss recognition, and the importance of exon length in splicing. Each split mEmerald sequence was cloned into a vector with constitutive expression of the non-overlapping fluorophore mCardinal (FIG. 1E). The resulting vectors permitted quantitative assessment of mutation-dependent protein production by measuring the ratio of mEmerald to mCardinal in cells with or without an SF3B1 mutation via flow cytometry.
Each construct was transfected into isogenic WT or SF3B1-mutant K562 cells and mutation-dependent splicing and protein production was measured. […] Mutation-dependent protein production arose from mutation-dependent splicing changes, as designed (FIGS. 6G and 6H). These proof-of-principle studies confirmed the feasibility of using synthetic introns for mutation-dependent gene expression. […]
A general note: In flow cytometry, cells or beads pass a laser one at a time.

Data set [2] has the same test system. The data set can be described thus: Single-construct cell viability (CellTiter-Glo, ATP) of cells expressing HSV-TK with synthetic intron, GCV treatment. The following applies: 0-100 μg/mL GCV, 3 days. (In ATP-based viability assays light output follows the ATP content of the culture.)
Description: This split HSV-TK sequence or an intronless HSV-TK was cloned into a lentiviral expression vector. Isogenic WT or SF3B1-mutant K562 cells were infected. Positive integrants were selected and treated with GCV (FIG. 2B).
Stable cell lines were made by transducing K562 or MCF10A cells with lentivirus at multiplicities of infection (MOIs) of 1 (FIGS. 2C, 2G, and 2H), 0.3 (mini-library), and 0.1 (full library). Positive integrants were selected by treating with puromycin (hPGK-PuroR-P2A-HSV-TK) or flow sorting for mCherry (hPGK-HSV-TK-P2A-mCherry).
Cell viability was measured for single-construct experiments in cell culture by the CellTiter-Glo Luminescent Cell Viability Assay (Promega). For FIG. 2C, K562 cells expressing HSV-TK with the indicated synthetic introns were seeded at a density of 10,000 cells/100 μL/well in a 96-well plate in biological triplicate, and then treated with 0-100 μg/mL GCV or untreated (negative control). Viability measured after 3 days of treatment. For FIG. 2G, K562 cells expressing HSV-TK with the indicated synthetic introns were seeded at a density of 5,000 cells/100 μL/well in 96-well plate in biological triplicate, and then treated with 100 μg/mL GCV or PBS (negative control). Viability was measured after 11 days of treatment.
Another data set relates to SF3B1-mutant K562 cells. The data set can be described thus: Mini-screen: pooled synthetic intron mini-library in HSV-TK, GCV treatment, full-length intron sequencing from genomic DNA. The text has this:
(§1) Therefore, a massively parallel splicing assay was developed to map and functionally interrogate key sequence features within the synthetic intron. First, a pilot mini-library of eight synthetic introns was synthesized, seven of which were much shorter (lengths of 100-158 nt) than the parent synthetic intron (synMTERFD3i1-250), and each with one or more perturbations to potentially critical features (FIG. 2E). This mini-library was cloned into HSV-TK, introduced into WT or SF3B1-mutant K562 cells with a lentiviral vector at a low multiplicity of infection, and treated with GCV. Relative depletion of each construct was measured by high-throughput sequencing of the entire introns from genomic DNA after six days of treatment (TABLE 1).
(§2) Each synthetic intron used in the mini-library was ordered individually as a gBlock (Integrated DNA Technologies), consisting of the desired intron flanked by homology arms for cloning (5′ arm: […] (SEQ ID NO:158); 3′ arm: […] (SEQ ID NO:159; TABLE 3). The gBlocks were then mixed in equal proportions before being cloned into hPGK-PuroR-P2A-HSV-TK using a previously published strategy for pooled cloning (Thomas, J. D. et al. RNA isoform screens uncover the essentiality and tumor-suppressor activity of ultraconserved poison exons. Nature genetics 52, 84-94 (2020), incorporated herein by reference in its entirety). This intron mix was then amplified using NEBNext High Fidelity Ready Mix (New England Biolabs) and purified using 1.8×AMPure XP SPRI beads (Beckman Coulter). The backbone for the library was amplified using Q5 polymerase (New England Biolabs). The library was transformed and amplified using Endura ElectroCompetent Cells (Lucigen, 60242-2) and large LB plates. The library was maxiprepped using a Macherey-Nagel MaxiPrep kit (Thermo Fisher Scientific, Cat 740414.10).
(§3) WT or SF3B1-mutant K562 cells were infected with lentivirus encoding the mini-library at an MOI of 0.3 and untreated or treated with GCV (100 ug/mL) for 6 days. Genomic DNA was collected at day 6 and the resulting Illumina libraries were sequenced with 2×150 bp reads (Illumina MiSeq). Depletion/enrichment of each construct was estimated as follows. For each sample, reads were normalized to the total reads mapped. The relative fraction of reads mapping to each intron was then estimated by dividing the numbers of normalized reads mapped to an intron by the total reads mapped in the sample. The standard deviation was calculated using the sample proportion P for each intron (σ=sqrt [P(1−P)/n]). A fold-change was calculated for each intron by dividing the proportion of the intron in the treated GCV samples by the fraction of the intron in the untreated samples. Error propagation was used to estimate the standard deviation. The final relative fold-changes were computed by normalizing fold-changes such that the fold-change of synMTERFD3i1-250 in the pilot screen was identical to the experimentally measured fold-change in a single-construct experiment (FIG. 2C, 100 μg/mL of GCV).

Another data set deals with WT K562 cells. The data set is described as above. The following applies: genotype WT (SF3B1+/+) K562; GCV 100 ug/mL; day 6; vector hPGK-PuroR-P2A-HSV-TK.
Description: as §1, §2, §3

B1: intron_control: 250 nt parent synthetic intron from MTERFD3 intron 1 (first 100 and last 150 nt); SEQ ID NO 63/71 (nucleic acid)
DNA 1: GTGAGTCGCCCCCTTCCTCTGCTCCTGGGCGTGTTCCTCACCAGCGGCGCCGCAGCGGTCAGGGCCCGCAAAACCCCACGCCTCGCCAGACGCTCAGCTCCAGGAAGCAAATGCAGCTGGTGCAGGAGAGGGAAATGGGAATTAGGGTGGTGGCAGAGCCCAAAGAGGCCTTGTAGGCCATGGTAAGGCATTTCTATGTTTTATTTTACTTTGTCTTTATCCTAAAATGCCATTGGCAAGTTTATTGCAG
DNA 2: GTGAGTCGCCCCCTTCCTCTGCTCCTGGGCGTGTTCCTCACCAGCGGCGCCGCAGCGGTCAGGGCCCGCAAAACCCCACGCCTCGCCAGACGCTCAGCTCCAGGAAGCAAATGCAGCTGGTGCAGGAGAGGGAAATGGGAATTAGGGTGGTGGCAGAGCCCAAAGAGGCCTTGTAGGCCATGGTAAGGCATTTCTATGTTTTATTTTACTTTGTCTTTATCCTAAAATGCCATTGGCAAGTTTATTGCAG
Molecule B1 displayed a mutation-dependent specificity in data set [1] of 2 fold. Also, the “viability upon GCV treatment” value is “a rapid and dose-dependent loss of viability, indistinguishable to that caused by intronless HSV-TK” in data set [2] (SF3B1-mutant K562 cells); “no significant differences in viability from untransduced cells” in data set [2] (WT K562 cells). Further, the “depletion / mutation responsiveness in mini-screen” value with SF3B1-mutant K562 cells (SF3B1-mutant vs WT K562, GCV, six days) is “markedly depleted in SF3B1-mutant, but not WT, cells”. Besides, the “fold-change (estimated fold-change in intron abundance in gDNA)” value in the data set with SF3B1-mutant K562 cells (genotype K700E (SF3B1+/K700E) K562, GCV 100 ug/mL, day 6, vector hPGK-PuroR-P2A-HSV-TK) is on record as 0.23; in the data set on WT K562 cells, 0.96.

The values above are taken from US20240018513A1, “SYNTHETIC INTRONS FOR TARGETED GENE EXPRESSION” (FRED HUTCHINSON CANCER CENTER, priority 2020, published 2024).
